This is an account of results in patent US20250154240A1, “ANTI-HUMAN CXCL1 ANTIBODY” (CHIOME BIOSCIENCE INC., priority 2022, published 2025).

One assay has as its target T1, human CXCL5 (Homo sapiens, UniProt P42830).
T1 sequence (P42830 37-114): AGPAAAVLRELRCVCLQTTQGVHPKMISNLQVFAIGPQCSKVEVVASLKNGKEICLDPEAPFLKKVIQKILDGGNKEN
The assay is described as follows: Binding to human CXCL5.

Assay [1] deals with OCUM-2MLN gastric cancer cell line. The assay is described as follows: Efficacy evaluation in a model with OCUM-2MLN orthotopic transplantation. In kind it is in vivo, mouse. To be noted: 20 mg/kg intraperitoneally twice a week, 3 weeks, compared to PBS control. On the procedure:
Among the candidate antibodies, 3 types of antibodies (4A-2F7, 5A-5E11 and 028-8-12) were evaluated for their in vivo antitumor activity in a xenograft model with OCUM-2MLN orthotopic transplantation. Procedures for the evaluation are shown below.
For use as mice, female nude mice (BALB/cAJcl-nu/nu) at 5 to 6 weeks of age were purchased from Charles River Japan, Inc. As human cancer cells, a gastric cancer cell line, OCUM-2MLN, was used.
OCUM-2MLN cells were cultured in D-MEM medium (FUJIFILM Wako Pure Chemical Corporation, Japan) supplemented with 10% fetal bovine serum (FBS; NICHIREI BIOSCIENCE), 1/100 volumes of a penicillin-streptomycin mixture (FUJIFILM Wako Pure Chemical Corporation, Japan) and 1/100 volumes of a sodium pyruvate solution (SIGMA-ALDRICH). The cells to be transplanted were detached with a 0.05 w/v % trypsin/0.53 mmol/L EDTA 4Na solution (FUJIFILM Wako Pure Chemical Corporation, Japan) and washed with PBS, and 1× 10^6 cells per mouse were transplanted into the gastric wall of each mouse. […] After 3 weeks had passed from the transplantation, the mice were sacrificed, and the short- and long-axis diameters of tumors formed in their gastric walls were each measured with a caliper. The tumor size was calculated according to the following: short-axis diameter (mm)×long-axis diameter (mm).

Another assay has as its target T2, HuCXCL1 (Homo sapiens, UniProt P09341).
T2 construct: made in house; host or cells: Expi293 expression system (transient), protein from the culture supernatant
T2 sequence (P09341 35-107): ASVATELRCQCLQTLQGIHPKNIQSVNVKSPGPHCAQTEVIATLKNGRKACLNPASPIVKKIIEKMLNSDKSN
The assay is described as follows: ELISA, inhibition of binding of HuCXCL1 to GAG (heparin, heparan sulfate). To be noted: antibody 0 to 10 μg/mL; biotin-labeled heparin or heparan sulfate 10 μg/mL. In kind it is biochemical. On the procedure: (§1) Thus, the effect of Hu5A-5E11 on the binding of CXCLs to GAG was evaluated by ELISA assay using plates on which the antigen (HuCXCL1 protein) used for immunization or HuCXCL2, 3 and 5 and MsCXCL1 and 2 proteins had been directly immobilized. CXCLs other than HuCXCL1 were purchased from PROTEINTECH and used. Biotin-labeled heparan sulfate and heparin were purchased from PG Research and used.
(§2) To 96-well plates, phosphate-buffered saline (PBS) containing 3 μg/mL of HuCXCL1, 2, 3 or 5 or MsCXCL1 or 10 μg/mL of MsCXCL2 was added in a volume of 50 μL per well, and the plates were allowed to stand overnight at 4° C. After removal of the antigen solutions, PBS containing 0.05% Tween-20 (hereinafter referred to as the blocking solution) was added to each well for blocking reaction, and the plates were allowed to stand at room temperature for 30 minutes. […] TMB (Dako) was added as a chromogenic substrate solution to cause color development, and 1 N sulfuric acid was added to stop the reaction, followed by measurement of absorbance at 450 nm. The binding rate of CXCLs to GAG was calculated as a ratio relative to the absorbance measured in the absence of the antibody, which was set to 100%.

A further assay concerns the target T3, HuCXCL3 (Homo sapiens, UniProt P19876).
T3 construct: purchased PROTEINTECH
T3 sequence (P19876 35-107): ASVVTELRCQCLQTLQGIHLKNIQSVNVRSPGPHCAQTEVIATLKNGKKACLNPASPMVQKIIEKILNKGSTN
Briefly: ELISA, inhibition of binding of HuCXCL3 to GAG (heparin, heparan sulfate). In kind it is biochemical. To be noted: antibody 0 to 10 μg/mL; biotin-labeled heparin or heparan sulfate 10 μg/mL. On the procedure: as §1, §2

Another assay has as its target T4, HuCXCL5 (Homo sapiens, UniProt P42830).
T4 sequence (P42830 37-114): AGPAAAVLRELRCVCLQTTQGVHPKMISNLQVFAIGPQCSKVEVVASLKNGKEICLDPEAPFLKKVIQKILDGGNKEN
Briefly: ELISA, inhibition of binding of HuCXCL5 to GAG (heparin, heparan sulfate). It is filed as biochemical. Further details: purchased PROTEINTECH
To be noted: antibody 0 to 10 μg/mL; biotin-labeled heparin or heparan sulfate 10 μg/mL. As for the experimental part: as §1, §2

In a further assay the target is T5, MsCXCL1 (Mus musculus, UniProt P12850).
T5 sequence (P12850 25-96): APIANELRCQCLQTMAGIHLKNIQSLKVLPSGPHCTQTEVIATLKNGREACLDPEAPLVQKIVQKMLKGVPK
The assay is described as follows: FACS, inhibition of binding of APC-labeled MsCXCL1 to HEK293 cells forced to express HuCXCR2. Particulars: APC-labeled ligand 10 μg/mL; HEK293 cells expressing HuCXCR2. It is filed as cell-based. Also on record: purchased PROTEINTECH; host or cells: CXCR2: transfected HEK293 cells. On the procedure:
Chemokines are stabilized by directly binding to GAG on the cell surface and thereby allow efficient signal transduction to their receptors. […] Then, to evaluate whether Hu5A-5E11 inhibits the binding of CXCLs to cells, the binding of fluorescently labeled CXCLs to cells was measured as fluorescence intensity by flow cytometry in FACS. For this purpose, HEK293 cells forced to express HuCXCR2 were used. For use as HuCXCL1, 2, 3 and 5 and MsCXCL1, the proteins in above were labeled with APC.
The cultured cells were detached and washed with PBS, and then suspended at 5.0× 10^5 cells/mL in PBS containing 1% BSA (hereinafter referred to as the FACS buffer). Each of the APC-labeled ligands and Hu5A-5E11 were mixed at final concentrations of 10 μg/mL and 16.7 μg/mL, respectively, and reacted at room temperature for 30 minutes, and then added to the cell suspension and reacted on ice for 30 minutes. After washing with the FACS buffer, the cells were suspended again in PBS containing 1% 7-AAD, 0.5% BSA and 2 mM EDTA, followed by the above flow cytometry to measure fluorescence intensity.

B1: 5A-5E11: mouse monoclonal anti-HuCXCL1 antibody clone; VH SEQ ID NO: 17, VL SEQ ID NO: 21 (antibody, listed as Mus musculus, V domains shown)
VH: QVQLQQSGAELVRPGSSVKISCKASGYAFSDYWMNWVKQRPGQGLEWIGQIYPGDGDTNYNGKFKGKGTLTADKSSSTAYMQLNSLTSEDSAVYFCARERDYDVAMDYWGQGTSVTVSS
VL: DIQMTQSPSSLSASLGGKVTITCKASQDINKYIAWFQHKPGKGPRLVIHYTSILQPGIPSRFSGVGSGRDYSFSIRNLEPEDIATYYCLQYDNLPWTFGGGTKLEIK
Take B1: the “Binding to human CXCL5” value with human CXCL5 was “also bind”. Further, the “Antitumor activity (tumor growth, tumor size)” value in assay [1] is given as “significantly suppress tumor growth”.

B2: 4A-2F7: mouse monoclonal anti-HuCXCL1 antibody clone; VH SEQ ID NO: 9, VL SEQ ID NO: 13 (antibody, listed as Mus musculus, V domains shown)
VH: QVTLKESGPGILKPSQTLSLTCSFSGFSLSTSGMGVDWIRQPSGKGLEWLAHIWWDDDKYYNPSLKSQLTISKDTSRNQVFLKITSVDTADTATYYCARSYGYDMDYYAMDYWGQGTSVTVSS
VL: DIQMTQSPSSLSASLGERVSLTCRASQEISGYLSWLQQKPDGTIKRLIYAASTLDSGVPKRFSGSRSGSDYSLTISSLESEDFADYYCLQYASYPPWTFGGGTKLEIK
Regarding B2, the “Binding to human CXCL5” value with human CXCL5 is recorded as “also bind”. The “Antitumor activity (tumor growth, tumor size)” value in assay [1] is listed as “significantly suppress tumor growth”.

B3: Hu5A-5E11: humanized antibody VH1/VL1; VH SEQ ID NO: 76, VL SEQ ID NO: 78 (antibody, V domains shown)
VH: QVQLVQSGAEVKKPGSSVKVSCKASGYAFSDYWMNWVRQAPGQGLEWIGQIYPGSGDTNYNAKFKGKGTITADKSTSTAYMELSSLRSEDTAVYYCARERDYDVAMDYWGQGTTVTVSS
VL: DIQMTQSPSSLSASVGDRVTITCKASQDINKYIAWFQQKPGKAPKLVIHYTSILQPGVPSRFSGSGSGTDYTFTISSLQPEDIATYYCLQYDNLPWTFGGGTKVEIK
With B3, the “Inhibitory activity against the binding of HuCXCL1 to GAG” value with HuCXCL1 was “inhibit the binding of HuCXCL1, 2, 3 and 5 and MsCXCL1 to GAG in an antibody concentration-dependent manner”. Besides, the “Inhibitory activity against the binding of HuCXCL3 to GAG” value with HuCXCL3 was “inhibit the binding of HuCXCL1, 2, 3 and 5 and MsCXCL1 to GAG in an antibody concentration-dependent manner”. Besides, the “Inhibitory activity against the binding of HuCXCL5 to GAG” value in the assay with HuCXCL5 was “inhibit the binding of HuCXCL1, 2, 3 and 5 and MsCXCL1 to GAG in an antibody concentration-dependent manner”. In addition, in the assay with MsCXCL1, the “Inhibitory activity against the binding of MsCXCL1 to cells (fluorescence intensity)” value is on record as “reduce the fluorescence intensity of the cells in an antibody concentration-dependent manner”.
